In the supplement of paper PMC12667976:

B1: library; numbered along this chain (parent)
chain: MATDAALRRLLRLHRTEIAVAVDSAFPLLHALADHDVVPEDKFQETLHLKEKEGCPQAFHALLSWLLTQDSTAILDFWRVLFKDYNLERYGRLQPILDSFPKDVDLSQPRKGRKPPAVPKALVPPPRLPTKRKASEEARAAAPAALTPRGTASPGSQLKAKPPKKPESSAEQQRLPLGNGIQTMSASVQRAVAMSSGDVPGARGAVEGILIQQVFESGGSKKCIQVGGEFYTPSKFEDSGSGKNKARSSSGPKPLVRAKGAQGAAPGGGEARLGQQGSVPAPLALPSDPQLHQKNEDECAVCRDGGELICCDGCPRAFHLACLSPPLREIPSGTWRCSSCLQATVQEVQPRAEEPRPQEPPVETPLPPGLRSAGEEVRGPPGEPLAGMDTTLVYKHLPAPPSAAPLPGLDSSALHPLLCVGPEGQQNLAPGARCGVCGDGTDVLRCTHCAAAFHWRCHFPAGTSRPGTGLRCRSCSGDVTPAPVEGVLAPSPARLAPGPAKDDTASHEPALHRDDLESLLSEHTFDGILQWAIQSMARPAAPFPS

Variants of: B1
Test: AIRE transcriptional activation functional score (insulin promoter-GFP; nonsense median 0, synonymous median 1) (normalised score); higher = higher AIRE activity (more reporter activation)
Conditions: with insulin promoter-GFP reporter in HEK293
In short: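 Three regions of AIRE were covered by codon-optimized NNN-codon libraries, which Bxb1 recombinase integrated into Flp-In T-REx HEK293 landing-pad cells that carry an insulin core promoter-GFP reporter. Integrants (mCherry+, BFP−) were sorted at day 7 and expanded 7 days, and then the top 10% GFP population and the unselected integrant population were tile-sequenced. The functional score is the enrichment of each variant in select versus non-select cells, with wild type subtracted. Variants required 10 counts per million in non-select, and values were rescaled to a nonsense median of 0 and a synonymous median of 1, then averaged over biological replicates.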

AIRE transcriptional activation functional score: each site, then its substitutions
D503: R 0.543; Q 0.845; C 0.896; H 0.851; Y 1.14; T 1.41; F 0.724; L 1; G 0.835; N 0.852; P 0.73; E 0.774; K 0.372; A 0.958; V 0.937; S 0.908; I 0.789
T504: F 0.918; N 0.713; Y 1.77; V 0.558; I 1.6; A 1.58; M 0.913; K 0.99; E 0.961; G 0.95; Q 1.7; D 1.79; L 0.843; C 1.15; W 1.23; S 1.44; R 0.922
S506: L 0.875; K 0.443; E 0.655; R 0.768; Y 1.42; P 1.11; D 1.11; N 0.728; G 0.799; Q 0.92; T 0.197; C 1.39; W 0.477; A 1.36; M 0.671; I 1.63; V 0.824; F 0.873; H 1.08
S491: C 1.29; G 0.752; V 0.901; H 1.42; D 0.749; Q 0.998; I 1.1; L 0.845; T 0.571; W 1.03; F 1.05; Y 1.35; E 1.06; K 0.437; R 0.586; A 0.995; M 1.31; P 1.1; N 0.925
P490: R 1.07; I 1.17; W -0.0714; E 0.916; D 0.28; F 0.986; T 1.13; H 0.603; Q 0.417; C 1.26; N 0.697; M 0.144; L 1.12; K 1.17; S 1.11; G 1.51; V 0.606
P492: R 0.779; G 1.01; L 1.02; I 1.13; K 0.595; D -0.0101; C 0.756; W 0.687; T 1.31; V 1.07; N 1.18; E 0.938; M 1.76; F 1.04; S 1.03; H 0.521; Y 0.427; Q 0.812; A 0.732
A500: V 1.04; E 0.98; F 0.977; C 1.07; R 0.915; M 0.733; T 1.12; H 1.22; D 1.19; Y 0.944; N 0.646; W 1.42; Q 1.34; L 0.907; G 0.758; S 1.17; K 0.785; I 1.1; P 0.844
P499: Q 1.15; Y 1.13; V 1.21; N 0.266; W 1.37; E 0.508; C 0.764; T 1.32; I 1.18; S 1.1; D 0.797; K 0.747; F 1.11; H 1.16; G 1.31; A 1.22; L 1.11; R 0.761
H507: K 0.802; G 0.805; Q 0.898; M 1.47; D 0.604; T 0.361; L 1.01; I 1.27; F 1.56; A 0.96; C 0.78; N 1.19; P 1.02; E 0.521; R 0.823; V 1.12; Y 1.18; S 0.954
E508: G 0.721; K 0.0783; N 0.552; L 0.506; M 0.536; F 0.724; I 0.786; A 0.896; C 0.854
K501: P 0.836; C 0.625; V 0.712; H 0.51; R 1.11; F 1.17; W 0.734; Q 1.08; D 0.395; S 1.3; T 1.04; A 0.451; Y 0.863; L 0.792; G 0.947; E 0.49; N 1.03; M 0.223; I 0.714
D502: E 0.952; F 1.35; I 1.02; Q 0.924; G 1.04; N 0.775; Y 1.33; V 0.937; L 0.916; W 1.04; S 0.804; M 0.261; P 0.765; K 0.812; A 0.926; C 0.85; H 1.15; R 0.415; T 0.991
P497: V 1.19; W 0.669; C 1.28; N 1.05; G 1.29; H 0.871; E 0.495; M 1.19; S 0.852; Q 1.02; I 1.13; D 0.292; R 0.646; T 1.09; K 0.828; F 1.03; A 1.16; L 1.34; Y 1.1
A505: L 0.848; G 0.337; I 1.09; Y 1.59; K 0.78; C 0.52; E 0.669; F 0.703; M 0.663; D 0.657; V 0.997; P 1.01; S 0.985; H -0.421; R 0.832; T -0.258
L495: G 1.05; C 0.97; H 1.23; A 1.42; M 0.186; I 1.22; V 1.07; K 0.745; R 0.848; T 0.948; P 0.262; Q 0.974; S 0.995; D 1.68; E 1; F 1.18; Y 1.35
A493: Y 1.13; R 1.15; P 0.631; Q 0.91; T 0.878; D 0.802; F 1.17; M 1.19; C 1.13; V 1.1; G 1.15; E 0.985; S 1.29; N 1.04; K 0.774; L 1.09; W 0.996; I 1.04; H 1.46
G498: H 1.42; D 0.318; Q 0.969; I 0.895; L 1.11; C 1.23; A 1.09; M 1.24; E 1.1; K 0.572; T 1.09; W 1.45; N 0.869; S 0.556; R 0.839; V 1.36; Y 1.2
R494: H 1.7; K 0.735; T 0.134; P 0.439; E 0.493; I 0.785; C 0.847; L 0.489; Q 0.696; Y 0.846; S 0.361; G 0.344; W 1.41; V 1.27; F 0.918; A 0.321; M 0.56
A496: S 1.02; I 1.04; T 0.81; R 0.864; K 0.412; Q 1.04; H 1.29; P 0.91; L 1.15; E 0.99; M 1.5; V 0.988; G 0.999; D 0.267; N 0.726; C 1.01; Y 1.07; W 1.64; F 1.07
